In the RNAGym collection of RNA variant scans (doi:10.7554/elife.90254):

B1: OR4K15 (parent)
chain: GUUAACGGUCAUAGGCCAUGGAAACUAGGAGCACCAUUUCGCUGCCAGUGAAGAAAUGAACAAAGAAAAUCUGGGCCAGGCAGGCAUCAAAAGAAAUAGUCUUGCGCUCAACCAGAAAGUCUGUAAUCAUUUUAAGGGUA

Variants of: B1
Test: self-cleavage, relative activity (ratio to wild type); higher = more cleavage; in vitro, sequencing; the parent is a self-cleaving ribozyme

Question: For GUUAACGGUCAUAGGCCAUGGAUACUAGGAGCACCAUUUCGCUGCCAGUGAAGAAAUGAACAAAGAAAAUCUGGGCCAGGCAGGCAUCAAAAGUAAUAGUCUUGCGCUCAACCAGAAAGUCUGUAAUCAUUUUAAGGGUA [A23U A94U], which self-cleavage is on record?
Answer: 0.3

Question: For GUUAACGGUCAUAGGCCAUGGAUACUAGGAGCACCAUUUCGCUGCCAGUGAAGAAAUGAACAAAGAAAAUCUGGGCCAGGCAGGCAUCAAAAGGAAUAGUCUUGCGCUCAACCAGAAAGUCUGUAAUCAUUUUAAGGGUA [A23U A94G], which self-cleavage is on record?
Answer: 1.18

Question: Which self-cleavage does the source give for GUUAACGGUCAUAGGCCAUGGAUACUAGGAGCACCAUUUCGCUGCCAGUGAAGAAAUGAACAAAGAAAAUCUGGGCCAGGCAGGCAUCAAAAGAAAUAGUCUUGCGCUCAACCAGAUAGUCUGUAAUCAUUUUAAGGGUA [A23U A117U] here?
Answer: 0.6

Question: Which self-cleavage does the source give for GUUAACGGUCAUAGGCCAUGGAUACUAGGAGCACCAUCUCGCUGCCAGUGAAGAAAUGAACAAAGAAAAUCUGGGCCAGGCAGGCAUCAAAAGAAAUAGUCUUGCGCUCAACCAGAAAGUCUGUAAUCAUUUUAAGGGUA [A23U U38C] here?
Answer: 0.48

Question: Which self-cleavage does the source give for GUUAACGGUCAUAGGCCAUGGAUACUAGGAGCACCAUUUCGCUGCCAGUGAAGAAAUGAACAAAGAAAAUCUGGGCCAGGCAGGCAUCAAAAGAAAUAGUCUUGCGCUCAACCAGAAAGUCUGUAAUCAUUCUAAGGGUA [A23U U132C] here?
Answer: 1.03

Question: Which self-cleavage does the source give for GUUAACGGUCAUAGGCCAUGGAUACUAGGAGCACCACUUCGCUGCCAGUGAAGAAAUGAACAAAGAAAAUCUGGGCCAGGCAGGCAUCAAAAGAAAUAGUCUUGCGCUCAACCAGAAAGUCUGUAAUCAUUUUAAGGGUA [A23U U37C] here?
Answer: 1.41

Question: With GUUAACGGUCAUAGGCCAUGGAUACUAGGAGCACCAUUUCGCUGCCAGUGAAGAAAUGAACAAAGAAAAUCUGGGCCAGGCAGGCAUCAAAAGAAAUAGUCUUGCGCUCAACCAGAAAGUCCGUAAUCAUUUUAAGGGUA [A23U U122C] as the variant, how does the self-cleavage read?
Answer: 1

Question: For GUUAACGGUCAUAGGCCAUGGAUACUAGGAGCACCAUUUCGCUGCCAGUGAAGAAAUGAACAAAGAAAAUCUGGGCCAGGCAGGCAUCAAAAGAAAUAGUCUUGCGCUCUACCAGAAAGUCUGUAAUCAUUUUAAGGGUA [A23U A110U], which self-cleavage is on record?
Answer: 0.93

Question: For GUUAACGGUCAUAGGCCAUGGAACCUAGGAGCACCAUUUCGCUGCCUGUGAAGAAAUGAACAAAGAAAAUCUGGGCCAGGCAGGCAUCAAAAGAAAUAGUCUUGCGCUCAACCAGAAAGUCUGUAAUCAUUUUAAGGGUA [A24C A47U], which self-cleavage is on record?
Answer: 0.89

Question: Which self-cleavage does the source give for GUUAACGGUCAUAGGCCAUGGAUACUAGGAGUACCAUUUCGCUGCCAGUGAAGAAAUGAACAAAGAAAAUCUGGGCCAGGCAGGCAUCAAAAGAAAUAGUCUUGCGCUCAACCAGAAAGUCUGUAAUCAUUUUAAGGGUA [A23U C32U] here?
Answer: 2.28

Question: For GUUAACGGUCAUAGGCCAUGGAUACUAGGAGCACCAUUUCGCUGCCAGUGAAGAAAUGAACAAAGAAAAUCUGGGCCAGGCAGGCAUCAAAAGAGAUAGUCUUGCGCUCAACCAGAAAGUCUGUAAUCAUUUUAAGGGUA [A23U A95G], which self-cleavage is on record?
Answer: 1.75

Question: Which self-cleavage does the source give for GUUAACGGUCAUAGGCCAUGGAACCUAGGAGCACCAUUUCGCUGCCAGUGAGGAAAUGAACAAAGAAAAUCUGGGCCAGGCAGGCAUCAAAAGAAAUAGUCUUGCGCUCAACCAGAAAGUCUGUAAUCAUUUUAAGGGUA [A24C A52G] here?
Answer: 1.55

Question: With GUUAACGGUCAUAGGCCAUGGAUACUAGGAGCACCAUUUCGCAGCCAGUGAAGAAAUGAACAAAGAAAAUCUGGGCCAGGCAGGCAUCAAAAGAAAUAGUCUUGCGCUCAACCAGAAAGUCUGUAAUCAUUUUAAGGGUA [A23U U43A] as the variant, how does the self-cleavage read?
Answer: 1.44

Question: Which self-cleavage does the source give for GUUAACGGUCAUAGGCCAUGGAUACUAGGAGCACCAUUUCGCUGCCAGUGAAGAAAUGAACAAAGAAAAUCUGGGCCAAGCAGGCAUCAAAAGAAAUAGUCUUGCGCUCAACCAGAAAGUCUGUAAUCAUUUUAAGGGUA [A23U G79A] here?
Answer: 0.16

Question: For GUUAACGGUCAUAGGCCAUGGAACCUAGGAGCACCAUUUCGCUGCCAGUGGAGAAAUGAACAAAGAAAAUCUGGGCCAGGCAGGCAUCAAAAGAAAUAGUCUUGCGCUCAACCAGAAAGUCUGUAAUCAUUUUAAGGGUA [A24C A51G], which self-cleavage is on record?
Answer: 1.23

Question: With GUUAACGGUCAUAGGCCAUGGAUACUAGGAGCACCAUUUCGCUGCCAGUGAAGAAAUGAACAAAGAAAAUCUGGGCCAGGCAGGCAUCAAAAGAAAUAGUCUUGCGCUCAACCAGAAAGUCUGUAGUCAUUUUAAGGGUA [A23U A126G] as the variant, how does the self-cleavage read?
Answer: 0.96

Question: With GUUAACGGUCAUAGGCCAUGGAUACUAGGAGCACCAUUUCGCUGCCAGUGAAGAAAUGAACAAAGAAAACCUGGGCCAGGCAGGCAUCAAAAGAAAUAGUCUUGCGCUCAACCAGAAAGUCUGUAAUCAUUUUAAGGGUA [A23U U70C] as the variant, how does the self-cleavage read?
Answer: 0.83

Question: For GUUAACGGUCAUAGGCCAUGGAUACUAGGAGCACCAUUUCGCUGCCAGUGAAGAAAUGAACAAAGAAAAUCUGGGCCAGGCAGGCAUCAAAAGAAAUAGUCUUGCGCUCAACCAGAAAGUCUAUAAUCAUUUUAAGGGUA [A23U G123A], which self-cleavage is on record?
Answer: 1.5

Question: Which self-cleavage does the source give for GUUAACGGUCAUAGGCCAUGGAACCUAGGGGCACCAUUUCGCUGCCAGUGAAGAAAUGAACAAAGAAAAUCUGGGCCAGGCAGGCAUCAAAAGAAAUAGUCUUGCGCUCAACCAGAAAGUCUGUAAUCAUUUUAAGGGUA [A24C A30G] here?
Answer: 1.02

Question: With GUUAACGGUCAUAGGCCAUGGAUACUAGGAGCACCAUUUCGCUGCCAGUGAAGAAAUGAACAAAGAAAAUCUGGGCCAGGCAGGCAUCAAAAGAAAUAGUCCUGCGCUCAACCAGAAAGUCUGUAAUCAUUUUAAGGGUA [A23U U102C] as the variant, how does the self-cleavage read?
Answer: 1.7

Question: With GUUAACGGUCAUAGGCCAUGGAACCUAGGAGCACCAUUUCGCUGCCAGUGAAGAAAUGAACAAAGAAAAUCUGGGCCAGGCAGGCAUCAAAAGAAAUAGUCUUGCGCUCAACCAGAAAGUCUGUAAUCAUUUUAAGGGUA [A24C] as the variant, how does the self-cleavage read?
Answer: 1.29
